Drawing on PMC12125293, this text covers stoichiometry N for one substance.

The target in the assay is HR2 peptide of the SARS-CoV-2 spike (H1159-K1211), His-SUMO removed (SARS-CoV-2) (UniProt P0DTC2). Nature of the assay: crystal structure.

The term stoichiometry N denotes a count of units in the complex or per binding partner. For the substance “HR2 peptide of the SARS-CoV-2 spike (H1159-K1211), His-SUMO removed (from UniProt P0DTC2 1159-1211) (domain or fragment)”, the stoichiometry N is 3.
